Columns and labels:
p73 [1] = molecular target: T1, p73 (Homo sapiens, UniProt O15350); assay: p73 protein level (stabilization) by immunoblot in cotransfected COS7 cells; format: cell-based; conditions: COS7 cotransfection
T1 construct: expressed in transfected cells; host or cells: COS7
T1 sequence (O15350 1-499 isoform O15350-2): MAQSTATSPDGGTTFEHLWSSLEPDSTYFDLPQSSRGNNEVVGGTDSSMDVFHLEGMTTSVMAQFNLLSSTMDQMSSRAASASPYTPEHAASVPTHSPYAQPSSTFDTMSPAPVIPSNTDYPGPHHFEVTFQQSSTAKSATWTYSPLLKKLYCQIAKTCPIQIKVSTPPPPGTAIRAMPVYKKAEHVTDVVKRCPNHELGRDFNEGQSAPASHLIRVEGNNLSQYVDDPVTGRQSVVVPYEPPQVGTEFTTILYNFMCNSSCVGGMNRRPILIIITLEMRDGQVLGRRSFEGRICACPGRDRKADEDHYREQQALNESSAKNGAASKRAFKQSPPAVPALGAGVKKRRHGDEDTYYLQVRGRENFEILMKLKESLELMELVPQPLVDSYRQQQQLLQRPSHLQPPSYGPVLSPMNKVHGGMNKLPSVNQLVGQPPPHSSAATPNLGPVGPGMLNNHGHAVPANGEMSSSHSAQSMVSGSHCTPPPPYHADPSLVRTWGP
Protocol: (§1) Cells were transiently transfected with a total of 2 μg of expression plasmids. After 48 hours of the transfection, the cells were washed with ice-cold PBS and suspended in lysis buffer (pH 8.0; which contained 25 mM Tris-Cl, 137 mM sodium chloride, 1% Triton X-100, 1 mM phenylmethylsulfonyl fluoride (PMSF), and protease inhibitor mix (Roche Molecular Biochemicals)), followed by brief sonication. After centrifugation at 15000 rpm for 10 minutes, the supernatant was collected and assayed for protein concentrations by the Bradford assay (Bio-Rad). Equal amounts of lysates (protein amount: 50 μg) from the whole cells were denatured by boiling in Laemmli SDS-sample buffer, then separated on 10% SDS-polyacrylamide gel (SDS-PAGE), and transferred at room temperature for 1 hour to polyvinylidene difluoride (PVDF) membranes (Immobilon-P; Millipore) in Tris-glycine buffer containing 10% methanol. The membranes were blocked at room temperature for 1 hour with Tris-buffered saline (TBS-T) containing 5% skim milk and 0.1% Tween 20.
(§2) As previously reported, some protein kinases (e.g., c-Abl and PKCδ) that interact with p73 can stabilize p73. To confirm whether IKK-α influenced the stabilization of p73, COS7 cells were transfected with a constant amount of HA-p73α expression plasmid together with or without varying amounts of IKK-α expression plasmids and examined for HA-p73α protein levels. […] Next, whether IKK-β influenced the stabilization of p73 and p53 was investigated by transient transfection.

p73 [2] = molecular target: T2, p73 (Homo sapiens, UniProt O15350); assay: as above; format: cell-based; conditions: COS7 cotransfection (FIG. 14, 15, 29)
T2 construct: expressed in transfected cells; host or cells: COS7
T2 sequence (O15350 1-636): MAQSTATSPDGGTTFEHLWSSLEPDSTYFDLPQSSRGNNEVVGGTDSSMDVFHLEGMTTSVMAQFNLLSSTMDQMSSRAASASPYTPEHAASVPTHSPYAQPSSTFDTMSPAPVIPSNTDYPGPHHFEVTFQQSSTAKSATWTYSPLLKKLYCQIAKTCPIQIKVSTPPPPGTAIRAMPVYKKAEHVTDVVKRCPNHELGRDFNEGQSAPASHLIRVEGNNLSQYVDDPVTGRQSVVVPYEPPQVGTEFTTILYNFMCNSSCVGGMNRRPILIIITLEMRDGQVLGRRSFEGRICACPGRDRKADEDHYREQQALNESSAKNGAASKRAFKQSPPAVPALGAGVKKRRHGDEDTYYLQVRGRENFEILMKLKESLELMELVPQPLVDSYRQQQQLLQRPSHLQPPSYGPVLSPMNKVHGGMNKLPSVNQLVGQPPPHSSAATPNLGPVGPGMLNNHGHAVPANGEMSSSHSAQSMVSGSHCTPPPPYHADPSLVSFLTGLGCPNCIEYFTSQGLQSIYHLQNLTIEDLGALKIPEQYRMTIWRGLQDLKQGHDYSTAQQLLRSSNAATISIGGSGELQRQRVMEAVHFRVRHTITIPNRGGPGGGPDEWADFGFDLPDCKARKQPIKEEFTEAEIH
Protocol: as §1, §2

p53 = assay: Luciferase reporter assay, p53-dependent transcriptional activation in H1299 cells; format: cell-based, human; conditions: H1299, coexpression with p53 (FIG. 22)
Protocol: H1299 cells deficient in p53 were seeded at a density of 5×10^4 cells/well onto a 12-well tissue culture dish and transiently transfected with 100 ng of luciferase reporter construct (which carried a p53/p73-responsive element derived from a p21^WAF1, Bax, or MDM2 promoter), 10 ng of pRL-TK Renilla luciferase cDNA, and 25 ng of given expression plasmid (p53, HA-p73α, or HA-p73β) together with or without varying amounts of IKK-α or FLAG-IKK-β expression plasmids. The total amount of DNA per transfection was kept constant (510 ng) with a pcDNA3 empty plasmid. After 48 hours from the transfection, the cells were washed twice with ice-cold PBS and suspended in passive lysis buffer (Promega). Both firefly and Renilla luciferase activities were assayed by use of dual-luciferase reporter assay system (Promega) according to the instruction. […] intensity was measured with TD-20 luminometer (Turner Design). The firefly luciferase signal was normalized based on the Renilla luciferase signal. Results obtained from at least 3 transfections were indicated by mean value±standard deviation.
To explore the functional implication of interaction between IKK-α and p73, the effect of IKK-α on p73-mediated transcriptional activation was first examined. […]

B1: IKK-α: IKK-α protein, amino acid sequence SEQ ID NO: 24, expressed from plasmid; apoptosis enhancer (protein, listed as Homo sapiens)
chain: MERPPGLRPGAGGPWEMRERLGTGGFGNVCLYQHRELDLKIAIKSCRLELSTKNRERWCHEIQIMKKLNHANVVKACDVPEELNILIHDVPLLAMEYCSGGDLRKLLNKPENCCGLKESQILSLLSDIGSGIRYLHENKIIHRDLKPENIVLQDVGGKIIHKIIDLGYAKDVDQGSLCTSFVGTLQYLAPELFENKPYTATVDYWSFGTMVFECIAGYRPFLHHLQPFTWHEKIKKKDPKCIFACEEMSGEVRFSSHLPQPNSLCSLIVEPMENWLQLMLNWDPQQRGGPVDLTLKQPRCFVLMDHILNLKIVHILNMTSAKIISFLLPPDESLHSLQSRIERETGINTGSQELLSETGISLDPRKPASQCVLDGVRGCDSYMVYLFDKSKTVYEGPFASRSLSDCVNYIVQDSKIQLPIIQLRKVWAEAVHYVSGLKEDYSRLFQGQRAAMLSLLRYNANLTKMKNTLISASQQLKAKLEFFHKSIQLDLERYSEQMTYGISSEKMLKAWKEMEEKAIHYAEVGVIGYLEDQIMSLHAEIMELQKSPYGRRQGDLMESLEQRAIDLYKQLKHRPSDHSYSDSTEMVKIIVHTVQSQDRVLKELFGHLSKLLGCKQKIIDLLPKVEVALSNIKEADNTVMFMQGKRQKEIWHLLKIACTQSSARSLVGSSLEGAVTPQTSAWLPPTSAEHDHSLSCVVTPQDGETSAQMIEENLNCLGHLSTIIHEANEEQGNSMMNLDWSWLTE
Question: Which results are given for B1?
Answer: stabilization of HA-p73β (p73 [1]): stabilized by IKK-α at a degree lower than that of HA-p73α; amount of HA-p73α (p73 [2]): remarkably increased the amount of HA-p73α; p53-responsive reporter gene activity (p53): not induced

— patent US7618787B2, “Method of screening compound capable of accelerating or inhibiting apoptosis, apoptosis accelarator and apoptosis inhibitor” (Hisamitsu Pharmaceutical Co., Inc., priority 2004, dated 2009)
